Laboratory results as given in paper doi:10.1101/207886.

Molecular target: MBP-fused Cas3 (E. coli) (UniProt P38036)
Experiment: single-molecule TIRF fluorescence

Sequence of UniProt P38036 (P38036 whole entry, the tested form may be a part): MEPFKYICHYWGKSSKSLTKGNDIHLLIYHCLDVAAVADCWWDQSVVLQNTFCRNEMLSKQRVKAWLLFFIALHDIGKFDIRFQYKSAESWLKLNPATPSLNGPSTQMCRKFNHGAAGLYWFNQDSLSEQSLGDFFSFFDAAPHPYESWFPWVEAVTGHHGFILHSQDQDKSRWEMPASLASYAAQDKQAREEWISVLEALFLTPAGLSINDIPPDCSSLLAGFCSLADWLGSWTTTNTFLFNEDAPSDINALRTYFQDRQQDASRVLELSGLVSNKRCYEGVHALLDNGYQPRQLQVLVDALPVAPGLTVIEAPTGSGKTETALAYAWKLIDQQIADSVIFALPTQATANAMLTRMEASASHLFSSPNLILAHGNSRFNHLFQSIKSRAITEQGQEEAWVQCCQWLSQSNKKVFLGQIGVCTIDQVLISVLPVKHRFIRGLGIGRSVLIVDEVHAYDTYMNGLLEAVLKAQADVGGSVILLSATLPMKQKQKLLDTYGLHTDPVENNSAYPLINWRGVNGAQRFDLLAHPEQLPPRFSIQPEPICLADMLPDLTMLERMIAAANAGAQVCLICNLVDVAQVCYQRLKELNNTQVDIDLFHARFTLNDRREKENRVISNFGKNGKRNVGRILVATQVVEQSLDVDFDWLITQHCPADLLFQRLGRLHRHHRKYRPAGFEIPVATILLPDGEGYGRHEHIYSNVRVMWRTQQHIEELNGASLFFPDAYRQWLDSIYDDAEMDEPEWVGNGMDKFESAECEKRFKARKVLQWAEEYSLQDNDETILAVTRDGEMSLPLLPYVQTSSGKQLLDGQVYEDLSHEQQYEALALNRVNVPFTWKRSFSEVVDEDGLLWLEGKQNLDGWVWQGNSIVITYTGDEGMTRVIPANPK

dwell-time: 1.63 s
Substance: Cascade complex (RNA-guided surveillance complex), bound to dye-labelled target DNA (from UniProt Q46901 1-502)
